Experiment in all cases: holdup assay
Holding throughout (parameters): key: below the threshold = too weak to quantify, mostly under pKd 3.1 to 4
Common to all, as to settings: plain residues with an end cap or a label only (N-terminal biotin on a linker: ttds)

Experiment [1] deals with T1, LNX2_1, Q8N448.
T1 sequence (Q8N448 228-328, limits assumed, looked up): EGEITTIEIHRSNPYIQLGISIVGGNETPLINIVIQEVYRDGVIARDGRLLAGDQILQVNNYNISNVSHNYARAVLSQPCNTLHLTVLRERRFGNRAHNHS

For experiment [2], the target named is LNX1_4, Q8TBB1.
Sequence of LNX1_4, Q8TBB1 (Q8TBB1 631-726): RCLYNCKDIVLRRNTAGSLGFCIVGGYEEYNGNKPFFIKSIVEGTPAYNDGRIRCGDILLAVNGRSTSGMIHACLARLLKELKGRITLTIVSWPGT
For experiment [3], the target named is T2, CNKSR1, Q969H4.
T2 sequence (Q969H4 191-295, limits assumed, looked up): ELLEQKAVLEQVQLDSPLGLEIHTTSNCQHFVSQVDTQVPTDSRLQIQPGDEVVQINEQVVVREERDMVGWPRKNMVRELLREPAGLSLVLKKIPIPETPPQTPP

For experiment [4], the target named is GIPC3, Q8TF64.
Sequence of GIPC3, Q8TF64 (Q8TF64 107-202): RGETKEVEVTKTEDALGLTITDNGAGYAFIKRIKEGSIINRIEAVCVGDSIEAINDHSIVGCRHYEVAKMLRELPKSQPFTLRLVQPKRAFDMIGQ
Experiment [5] deals with LIMK1, P53667.
Sequence of LIMK1, P53667 (P53667 155-268): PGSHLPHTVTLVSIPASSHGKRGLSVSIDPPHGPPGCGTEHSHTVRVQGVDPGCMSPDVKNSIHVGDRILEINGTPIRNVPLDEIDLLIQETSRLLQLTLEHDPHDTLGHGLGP
In experiment [6] the target is T3, RGS12, O14924.
T3 sequence (O14924 17-108, limits assumed, looked up): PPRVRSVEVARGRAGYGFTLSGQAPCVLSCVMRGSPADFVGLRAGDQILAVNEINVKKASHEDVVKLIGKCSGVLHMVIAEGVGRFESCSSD

The target of experiment [7] is Q9ULJ8.
Experiment [8] concerns the target Q96FS4.
The target in experiment [9] is Q5TCQ9.
Experiment [10] addresses O60759.
The target of experiment [11] is O00233.
Experiment [12] addresses Q70Z35.
For experiment [13], the target named is O15021.
Experiment [14] addresses Q9H190.
Experiment [15] addresses Q8IUC4.
In experiment [16] the target is Q9Y3R0.
The target of experiment [17] is Q13009.
Experiment [18] addresses Q96SB3.
Experiment [19] addresses Q9UMS6.
Experiment [20] addresses O75970.
In experiment [21] the target is Q9P227.
Experiment [22] addresses Q96JB8.
Experiment [23] addresses Q9NR12.
Experiment [24] deals with Q8TEW0.
The target of experiment [25] is Q92614.

B1: HTLV1-TAX1, P03409 (peptide)
chain: SEKHFRETEV
By pKd is commonly meant −log10 of the Kd, conventionally taken in molar units. Regarding B1, the pKd result in experiment [1] and in [2] was “below the threshold” in each case.

B2: RPS6KA1, Q15418 (peptide)
chain: RRVRKLPSTTL
As to B2, the pKd result was “below the threshold” in experiment [3]; “below the threshold” in experiment [1]; “below the threshold” in [4]; “below the threshold” in [5]; “below the threshold” in experiment [2]; 3.56 in experiment [6].

B3: PBK, Q96KB5 (peptide)
chain: HIVEALETDV
B3: the pKd result in experiment [7], in [3], in experiment [4], in experiment [8], in experiment [9] and in [10] was “below the threshold” in each case. The pKd result in experiment [11], in experiment [12], in [13], in [14], in experiment [15] and in [16] was “below the threshold” throughout. For the same molecule, the negative-log Kd (pKd) in [5] is 4.63; in [17], “below the threshold”; in [18], “below the threshold”; in [19], “below the threshold”; in experiment [20], “below the threshold”; in experiment [21], “below the threshold”. Besides, the pKd result in experiment [22], in [23], in experiment [6] and in experiment [24] was “below the threshold” throughout.

B4: ARHGEF16, Q5VV41 (peptide)
chain: MERLRVETDV
For B4, the negative logarithm of the Kd (pKd) entry in experiment [7] was “below the threshold”; in experiment [3], 4.16; in experiment [4], “below the threshold”; in experiment [8], “below the threshold”; in experiment [9] it was “below the threshold”; in experiment [10], “below the threshold”. Moreover, the negative-log Kd (pKd) result in experiment [11], in [12], in experiment [13], in experiment [14], in experiment [25] and in experiment [15] was “below the threshold” in each case. For the same molecule, the pKd entry in [16], in experiment [5], in experiment [17], in experiment [18], in experiment [19] and in [20] was “below the threshold” throughout. Moreover, the negative-log Kd (pKd) entry in experiment [21], in experiment [22], in experiment [23], in experiment [6] and in experiment [24] was “below the threshold” throughout.

B5: ASIC3, Q9UHC3 (peptide)
chain: HRTCYLVTQL
In the case of B5, the pKd entry in experiment [7], in experiment [3], in [4], in experiment [8], in experiment [9] and in experiment [10] was “below the threshold” in each case. Besides, the pKd entry in experiment [11], in experiment [12], in experiment [13], in experiment [14], in experiment [25] and in experiment [15] was “below the threshold” throughout. In addition, the pKd result in [16], in experiment [17], in experiment [18], in experiment [19], in experiment [20] and in [21] was “below the threshold” each time. Besides, the pKd entry was “below the threshold” in [22], “below the threshold” in experiment [23], 4.28 in experiment [6] and “below the threshold” in [24].

B6: MAP2K2, P36507 (peptide)
chain: QPGTPTRTAV
As for B6, the pKd entry in [7] was “below the threshold”; in [3], 4.07; in experiment [4], “below the threshold”; in [8], “below the threshold”; in experiment [9] it was “below the threshold”; in experiment [10] it was “below the threshold”. Further, the pKd entry in experiment [11], in experiment [12], in [13], in [14], in experiment [25] and in experiment [15] was “below the threshold” in each case. For the same molecule, the pKd result in experiment [16] is “below the threshold”; in [5], 4.2; in experiment [17], “below the threshold”; in experiment [18], “below the threshold”; in experiment [19], “below the threshold”; in experiment [20] it was “below the threshold”. Besides, the pKd result in experiment [21], in experiment [22], in experiment [23], in [6] and in experiment [24] was “below the threshold” in each case.

B7: KCNA5, P22460 (peptide)
chain: CLDTSRETDL
For B7, the negative logarithm of the Kd (pKd) entry in [7], in [3], in [4], in [8], in [9] and in experiment [10] was “below the threshold” in each case. Further, the negative logarithm of the Kd (pKd) result in experiment [11], in experiment [12], in [13], in [14], in [25] and in experiment [15] was “below the threshold” each time. Besides, the negative logarithm of the Kd (pKd) result in experiment [16] was “below the threshold”; in experiment [5], 4.3; in experiment [17] it was “below the threshold”; in [18], “below the threshold”; in experiment [19] it was “below the threshold”; in [20], “below the threshold”. Also, the pKd entry in experiment [21], in experiment [22], in [23], in [6] and in experiment [24] was “below the threshold” throughout.

B8: PTEN, P60484 (peptide)
chain: DEDQHTQITKV
Turning to B8, the negative logarithm of the Kd (pKd) result in experiment [1] and in experiment [5] was “below the threshold” each time.

Values taken from PMC9482650, “Quantitative fragmentomics allow affinity mapping of interactomes” (Nature Communications, 2022).
